Test results published in patent publication US20140087995A1 (published 2014).
Numbered stars: 1 amine (or outer) side, 2 acyl side, 3 side chain; on linkers, the order of the positions; unused ones are H or OH. Bridge positions count the residues as written; N and C are the ends. Side chains are listed from the residue outwards. Ends that are not written are not given here. * marks the point of attachment. C20 diacid = O=C(O)CCCCCCCCCCCCCCCCCCC(=O)*; C18 diacid = O=C(O)CCCCCCCCCCCCCCCCC(=O)*; C16 diacid = O=C(O)CCCCCCCCCCCCCCC(=O)*; γGlu = O=C(O)[C@H](CCC(=O)[*:2])N[*:1]; C14 diacid = O=C(O)CCCCCCCCCCCCC(=O)*; AEEA = NCCOCCOCC(=O)O

T1: human amylin 3(a) receptor (human calcitonin receptor co-expressed with RAMP-3) (human, UniProt P30988 25-474; O60896 24-148, limits assumed)
T1 sequence (looked up) 1: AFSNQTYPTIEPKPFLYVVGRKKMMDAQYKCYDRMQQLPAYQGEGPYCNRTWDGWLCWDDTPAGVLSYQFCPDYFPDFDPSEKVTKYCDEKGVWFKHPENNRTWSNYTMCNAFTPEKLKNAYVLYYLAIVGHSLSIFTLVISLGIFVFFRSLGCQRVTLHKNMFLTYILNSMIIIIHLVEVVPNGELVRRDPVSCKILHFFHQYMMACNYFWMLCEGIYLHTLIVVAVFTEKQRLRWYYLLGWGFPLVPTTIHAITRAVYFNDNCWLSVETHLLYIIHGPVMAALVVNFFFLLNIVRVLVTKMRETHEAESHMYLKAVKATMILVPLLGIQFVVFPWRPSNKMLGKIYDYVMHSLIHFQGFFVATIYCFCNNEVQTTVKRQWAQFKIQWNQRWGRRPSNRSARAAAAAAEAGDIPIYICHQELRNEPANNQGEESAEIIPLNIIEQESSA
T1 sequence (looked up) 2: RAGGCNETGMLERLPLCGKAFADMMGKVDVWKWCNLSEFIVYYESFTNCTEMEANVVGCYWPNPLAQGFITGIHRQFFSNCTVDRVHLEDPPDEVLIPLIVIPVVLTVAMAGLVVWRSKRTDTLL

T2: human calcitonin receptor (human, UniProt P30988 25-474)
T2 sequence (looked up): T1 sequence (looked up) 1

B1: N^α1-[(4S)-4-carboxy-4-(19-carboxynonadecanoylamino)butanoyl]-[Glu14,Arg17,Pro21,Pro25,Pro28,Pro29,Pro37]-h-amylin (peptide)
peptide: {C20 diacid-γGlu}-KCNTATCATQRLAEFLRHSSPNFGPILPPTNVGSNTP-NH2
modifications: disulfide 2-7
SMILES: CC[C@H](C)[C@H](NC(=O)[C@@H]1CCCN1C(=O)CNC(=O)[C@H](Cc1ccccc1)NC(=O)[C@H](CC(N)=O)NC(=O)[C@@H]1CCCN1C(=O)[C@H](CO)NC(=O)[C@H](CO)NC(=O)[C@H](Cc1c[nH]cn1)NC(=O)[C@H](CCCNC(=N)N)NC(=O)[C@H](CC(C)C)NC(=O)[C@H](Cc1ccccc1)NC(=O)[C@H](CCC(=O)O)NC(=O)[C@H](C)NC(=O)[C@H](CC(C)C)NC(=O)[C@H](CCCNC(=N)N)NC(=O)[C@H](CCC(N)=O)NC(=O)[C@@H](NC(=O)[C@H](C)NC(=O)[C@@H]1CSSC[C@H](NC(=O)[C@H](CCCCN)NC(=O)CC[C@H](NC(=O)CCCCCCCCCCCCCCCCCCC(=O)O)C(=O)O)C(=O)N[C@@H](CC(N)=O)C(=O)N[C@@H]([C@@H](C)O)C(=O)N[C@@H](C)C(=O)N[C@@H]([C@@H](C)O)C(=O)N1)[C@@H](C)O)C(=O)N[C@@H](CC(C)C)C(=O)N1CCC[C@H]1C(=O)N1CCC[C@H]1C(=O)N[C@H](C(=O)N[C@@H](CC(N)=O)C(=O)N[C@H](C(=O)NCC(=O)N[C@@H](CO)C(=O)N[C@@H](CC(N)=O)C(=O)N[C@H](C(=O)N1CCC[C@H]1C(N)=O)[C@@H](C)O)C(C)C)[C@@H](C)O
notes: also called compound 4
B2: N^α1-[(4S)-4-carboxy-4-(19-carboxynonadecanoylamino)butanoyl]-[Asp14,Arg17,Pro21,Pro27,Pro37]-h-amylin (peptide)
peptide: {C20 diacid-γGlu}-KCNTATCATQRLADFLRHSSPNFGAIPSSTNVGSNTP-NH2
modifications: disulfide 2-7
SMILES: CC[C@H](C)[C@H](NC(=O)[C@H](C)NC(=O)CNC(=O)[C@H](Cc1ccccc1)NC(=O)[C@H](CC(N)=O)NC(=O)[C@@H]1CCCN1C(=O)[C@H](CO)NC(=O)[C@H](CO)NC(=O)[C@H](Cc1c[nH]cn1)NC(=O)[C@H](CCCNC(=N)N)NC(=O)[C@H](CC(C)C)NC(=O)[C@H](Cc1ccccc1)NC(=O)[C@H](CC(=O)O)NC(=O)[C@H](C)NC(=O)[C@H](CC(C)C)NC(=O)[C@H](CCCNC(=N)N)NC(=O)[C@H](CCC(N)=O)NC(=O)[C@@H](NC(=O)[C@H](C)NC(=O)[C@@H]1CSSC[C@H](NC(=O)[C@H](CCCCN)NC(=O)CC[C@H](NC(=O)CCCCCCCCCCCCCCCCCCC(=O)O)C(=O)O)C(=O)N[C@@H](CC(N)=O)C(=O)N[C@@H]([C@@H](C)O)C(=O)N[C@@H](C)C(=O)N[C@@H]([C@@H](C)O)C(=O)N1)[C@@H](C)O)C(=O)N1CCC[C@H]1C(=O)N[C@@H](CO)C(=O)N[C@@H](CO)C(=O)N[C@H](C(=O)N[C@@H](CC(N)=O)C(=O)N[C@H](C(=O)NCC(=O)N[C@@H](CO)C(=O)N[C@@H](CC(N)=O)C(=O)N[C@H](C(=O)N1CCC[C@H]1C(N)=O)[C@@H](C)O)C(C)C)[C@@H](C)O
notes: also called compound 10

What follows are binders tested against T1, human amylin 3(a) receptor (human …) (assay: cell-based or functional assay).

Compared with B1, {C20 diacid-γGlu}-KCNTATCATQRLAEFLRHSSPNFGAIPSSTNVGSNTP-NH2 (disulfide 2-7 (inferred), also called compound 8) is lower in “Ratio hCT/hAmylin funct.” value: 1.2 for the first, 1.1 for the second.

B2 and {C20 diacid-γGlu}-KCNTATCATQRLAEFLRHSSPNFGAPLSSTNVGSNTP-NH2 (disulfide 2-7 (inferred), also called compound 5) are the same in “Ratio hCT/hAmylin funct.” value: 1 for the first, 1 for the second.

Going from {C20 diacid-γGlu}-KCNTATCATQRLAEFLRHSSPNFGAIPSSTNVGSDTP-NH2 (disulfide 2-7 (inferred), also called compound 11) to {C20 diacid-γGlu}-KCNTATCATQRLAEFLRHSSPNFGAILPSTNVGSETY-NH2 (disulfide 2-7 (inferred), also called compound 33), the “Ratio hCT/hAmylin funct.” value rises from 0.9 to 2.2.

Going from {C20 diacid-γGlu}-KCNTATCATQRLAEFLRHSSPNFGAIPSSTNVGSETY-NH2 (disulfide 2-7 (inferred), also called compound 22) to K([γGlu-C20 diacid])CNTATCATQRLAEFLRHSSPNFGAIPSSTNVGPNTP-NH2 (disulfide 2-7 (inferred)), the “Ratio hCT/hAmylin funct.” value falls from 3.8 to 0.9.

Compared with K([γGlu-C20 diacid])CNTATCATQRLAHFLRHSSPNFGAIPSSTNVGPNTP-NH2 (disulfide 2-7 (inferred)), K([γGlu-C20 diacid])CNTATCATQRLAEFLRHSSPNFGAIPSSTNVGSNTP-NH2 (disulfide 2-7 (inferred), also called compound 12) is higher in “Ratio hCT/hAmylin funct.” value: 0.8 for the first, 1.8 for the second.

Compared with K([γGlu-γGlu-C20 diacid])CNTATCATQRLAEFLRHSSPNFGAIPSSTNVGSNTP-NH2 (disulfide 2-7 (inferred), also called compound 13), {C20 diacid-γGlu-γGlu}-KCNTATCATQRLAEFLRHSSPNFGAIPSSTNVGSNTP-NH2 (disulfide 2-7 (inferred), also called compound 14) is lower in “Ratio hCT/hAmylin funct.” value: 2.2 for the first, 1.6 for the second.

Going from {C20 diacid-γGlu-AEEA-AEEA}-KCNTATCATQRLAEFLRHSSPNFGAIPSSTNVGSNTP-NH2 (disulfide 2-7 (inferred), also called compound 20) to {C20 diacid-γGlu}-GRCNTATCATQRLAHFLRHSSPNFGAIPSSTNVGPNTY-NH2 (disulfide 3-8 (inferred)), the “Ratio hCT/hAmylin funct.” value falls from 3.6 to 2.9.

{C20 diacid-γGlu}-GRCNTATCATQRLAAFLRHSSPNFGAIPSSTNVGPNTY-NH2 (disulfide 3-8 (inferred)) was tested, and the “Ratio hCT/hAmylin funct.” value was 2.1.

These binders were tested against T2, human calcitonin receptor (assay: cell-based or functional assay).

Going from K([AEEA-AEEA-γGlu-C20 diacid])CNTATCATQRLANFLRHSSPNFGAIPSSTPVGSNTY-NH2 (disulfide 2-7 (inferred), also called compound 96) to K([γGlu-C14 diacid])CNTATCATQRLANFLRHSSPNFGAIPSSTNVGHNTY-NH2 (disulfide 2-7 (inferred)) [N^ε1-[(4S)-4-carboxy-4-(13-carboxytridecanoylamino)butanoyl]-[Arg17,Pro21,Pro27,His34]-h-amylin], the “Ratio hCT/hAmylin funct.” value rises from 21 to 38.8.

Going from K([γGlu-C16 diacid])CNTATCATQRLANFLRHSSPNFGAIPSSTNVGHNTY-NH2 (disulfide 2-7 (inferred)) [N^ε1-[(4S)-4-carboxy-4-(15-carboxypentadecanoylamino)butanoyl]-[Arg17,Pro21,Pro27,His34]-h-amylin] to K([γGlu-C18 diacid])CNTATCATQRLANFLRHSSPNFGAIPSSTNVGHNTY-NH2 (disulfide 2-7 (inferred)) [N^ε1-[(4S)-4-carboxy-4-(17-carboxyheptadecanoylamino)butanoyl]-[Arg17,Pro21,Pro27,His34]-h-amylin], the “Ratio hCT/hAmylin funct.” value falls from 65.1 to 60.9.

Going from K([γGlu-C20 diacid])CNTATCATQRLADFLRHSSPNFGAIPSSTNVGPRTY-NH2 (disulfide 2-7 (inferred)) to K([γGlu-C20 diacid])CNTATCATQRLAEFLRHSSPNFGAIPSSTNVGPRTY-NH2 (disulfide 2-7 (inferred)), the “Ratio hCT/hAmylin funct.” value falls from 24.9 to 17.

First: K([γGlu-γGlu-C20 diacid])CNTATCATQRLANFLRHSSPNFGAIPSSTPVGPRTY-NH2 (disulfide 2-7 (inferred))
Second: K([γGlu-γGlu-C20 diacid])CNTATCATQRLADFLRHSSPNFGAIPSSTNVGPRTY-NH2 (disulfide 2-7 (inferred), also called compound 130)
The “Ratio hCT/hAmylin funct.” value of the first is lower: 26 for the first, 44.9 for the second.

Compared with K([γGlu-γGlu-C20 diacid])CNTATCATQRLAEFLRHSSPNFGAIPSSTNVGHETY-NH2 (disulfide 2-7 (inferred)), K([γGlu-γGlu-C20 diacid])CNTATCATQRLAEFLRHSSPNFGAIPSSTNVGPRTY-NH2 (disulfide 2-7 (inferred), also called compound 110) is higher in “Ratio hCT/hAmylin funct.” value: 15.8 for the first, 29.3 for the second.

First: K([γGlu-γGlu-C20 diacid])CNTATCATQRLAEFLRHSSPNFGAIPSSTNVGPHTY-NH2 (disulfide 2-7 (inferred))
Second: K([γGlu-γGlu-C20 diacid])CNTATCATQRLAHFLRHSSPNFGAIPSSTNVGSNTY-NH2 (disulfide 2-7 (inferred), also called compound 92)
The “Ratio hCT/hAmylin funct.” value of the first is lower: 16.4 for the first, 28 for the second.

In the case of K([γGlu-γGlu-C20 diacid])CNTATCATQRLAEFLRHSSNNPGAILSSTNVGPETY-NH2 (disulfide 2-7 (inferred)), the “Ratio hCT/hAmylin funct.” value is reported as 17.3.
